Results from patent publication US20260132197A1 (NANJING LEGEND BIOTECH, published 2026).
Where a chain is given by its changes, count along the chain named. In names and notes the source's numbering stands. Each block holds one binder with its values, some of them ahead of it.

How the values were obtained:
[1] = molecular target: T1, Human CD47-C33G (human, UniProt Q08722 19-135); experiment: SPR, IgG captured, CD47 in flow; exp 1;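 note: biacore T200 SPR using IgG from supernatants of transfected HEK293 cells, rate constants fitted to association and dissociation curves, Kd derived from koff over kon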
T1 construct: also called CD47 mutein with C33G mutation

[2] = molecular target: T2, wild type human CD47 (Acro Biosystems, cat. no. CD7-H5227) (human, UniProt Q08722 19-139); experiment: SPR, IgG captured, CD47 in flow; exp 1;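 note: biacore T200 SPR using IgG from supernatants of transfected HEK293 cells, rate constants fitted to association and dissociation curves, Kd derived from koff over kon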
T2 construct: Bought protein used as SPR analyte; also called Human CD47 wt; wild-type CD47

[3] = molecular target: T3, human CD47 on cells (SHP-77 tumor cells, human red blood cells, CCRF-CEM cells, human CD47 CHO-K1 stable cell … (human, UniProt Q08722 19-323)); experiment: flow cytometry on human CD47 CHO-K1 cells; plateau not reached, not accurate
T3 construct: whole, on cells; also called RBC

[4] = molecular target: T4, cynomolgus CD47 on CHO-K1 stable cell line (cynomolgus, UniProt A0A5F8AK49 19-323 (rhesus entry)); experiment: flow cytometry on cynomolgus CD47 CHO-K1 cells; plateau not reached, not accurate
T4 construct: whole, on cells; also called cynomolgus CD47/CHO-K1

[5] = molecular target: T3, human CD47 on cells (SHP-77 tumor …); experiment: flow cytometry on human RBCs;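 note: antibody binding measured by flow cytometry as geometric mean fluorescence intensity over a range of antibody concentrations, with EC50 and maximum taken from a sigmoidal dose-response fit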
[6] = molecular target: T3, human CD47 on cells (SHP-77 tumor …); experiment: flow cytometry on SHP-77 cells
[7] = molecular target: T1, Human CD47-C33G; experiment: SPR, IgG captured, CD47 in flow; exp 2
[8] = molecular target: T2, wild type human CD47 (Acro Biosystems, …); experiment: SPR, IgG captured, CD47 in flow; exp 2
[9] = molecular target: T1, Human CD47-C33G; experiment: SPR, IgG captured, CD47 in flow; exp 2; estimated, out of instrument limit
[10] = molecular target: T3, human CD47 on cells (SHP-77 tumor …); experiment: cell-based or functional assay
[11] = molecular target: T3, human CD47 on cells (SHP-77 tumor …); experiment: flow cytometry on human CD47 CHO-K1 cells
[12] = molecular target: T4, cynomolgus CD47 on CHO-K1 stable cell …; experiment: flow cytometry on cynomolgus CD47 CHO-K1 cells
[13] = molecular target: T1, Human CD47-C33G; experiment: SPR, IgG captured, CD47 in flow; exp 4
[14] = molecular target: T2, wild type human CD47 (Acro Biosystems, …); experiment: SPR, IgG captured, CD47 in flow; exp 4
[15] = molecular target: T1, Human CD47-C33G; experiment: SPR, IgG captured, CD47 in flow; exp 3;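 note: other target is a CD47 mutein carrying C33G, used to obtain true monovalent affinity, with kon and koff fitted from SPR binding curves and KD derived from both rates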
[16] = molecular target: T2, wild type human CD47 (Acro Biosystems, …); experiment: SPR, IgG captured, CD47 in flow; exp 3;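 note: other target is a CD47 mutein carrying C33G, used to obtain true monovalent affinity, with kon and koff fitted from SPR binding curves and KD derived from both rates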
[17] = molecular target: T1, Human CD47-C33G; experiment: SPR, IgG captured, CD47 in flow; exp 2; remark: listed apart in the source
[18] = molecular target: T2, wild type human CD47 (Acro Biosystems, …); experiment: SPR, IgG captured, CD47 in flow; exp 2; remark: listed apart in the source
[19] = molecular target: T1, Human CD47-C33G; experiment: SPR, IgG captured, CD47 in flow; exp 2; estimated, out of instrument limit; remark: listed apart in the source
[20] = molecular target: T1, Human CD47-C33G; experiment: SPR, IgG captured, CD47 in flow; exp 2; remark: listed apart in the source
[21] = molecular target: T1, Human CD47-C33G; experiment: SPR, IgG captured, CD47 in flow; exp 4; remark: listed apart in the source
[22] = molecular target: T2, wild type human CD47 (Acro Biosystems, …); experiment: SPR, IgG captured, CD47 in flow; exp 4; remark: listed apart in the source

B1: 108VH5.M6 / 108VL1.M5 (antibody, human IgG4 S228P, kappa, V domains shown)
VH: EVQLVQSGAEVKKPGASVKVSCKASGYTFTHHYMHWVRQAPGQGLEWMGMIDASDSETRLSQKFKDRVTMTRDTSTSTVYMELSSLRSEDTAVYYCARLGRYYFDYWGQGTLVTVSS
VL: EIVLTQSPATLSLSPGERATLSCRASQSVSSYLAWYQQKPGQAPRLLIYGASNRATGIPARFSGSGSGTDFTLTISSLEPEDFAVYYCGESYGHLYTFGGGTKVEIKR
notes: Full-length IgG4 (S228P), kappa; also called VH5.M6 VL1.M5
Kd [1]: 800 nM
koff [1]: 0.097 s⁻¹
kon [1]: 120000 M⁻¹ s⁻¹
Kd [2]: 8 nM
koff [2]: 0.0039 s⁻¹
kon [2]: 490000 M⁻¹ s⁻¹
EC50 [3]: 20 nM
EC50 [4]: 22.5 nM
EC50 [5]: 11.1 nM
Fitted Maximal MFI [5]: 9460 MFI
EC50 [6]: 25.1 nM
Fitted Maximal MFI [6]: 6250 MFI

B2: 108VH5.M11 / 108VL1.M5 (antibody, human IgG4 S228P, kappa, V domains shown)
VH: B1 VH with M34I, L60Y, S61A, K65Q, D66G
VL: B1 VL
notes: Full-length IgG4 (S228P), kappa; also called VH5.M11 VL1.M5
kon [7]: 190000 M⁻¹ s⁻¹
Kd [8]: 12 nM
koff [8]: 0.0032 s⁻¹
kon [8]: 260000 M⁻¹ s⁻¹
Kd [9]: > 530 nM
koff [9]: > 0.1 s⁻¹
EC50 [5]: 178 nM
Fitted Maximal MFI [5]: 1540 MFI
EC50 [6]: 797 nM
Fitted Maximal MFI [6]: 4000 MFI

B3: 108VH5.M27 / 108VL1.M5 (antibody, human IgG4 S228P, kappa, V domains shown)
VH: B1 VH with Y33W, S56Y, L60Y, S61A, K65Q, D66G
VL: B1 VL
notes: Full-length IgG4 (S228P), kappa; also called VH5.M27 VL1.M5
CCRF-CEM phagocytosis EC50 [10]: 0.28 nM
CCRF-CEM phagocytosis, Phagocytosis (%) [10]: 64.3%
EC50 [11]: 2.6 nM
EC50 [12]: 3.4 nM
EC50 [5]: 4.7 nM
Fitted Maximal MFI [5]: 26900 MFI
Kd [13]: 39 nM
koff [13]: 0.0085 s⁻¹
kon [13]: 220000 M⁻¹ s⁻¹
Kd [14]: 7.4 nM
koff [14]: 0.0036 s⁻¹
kon [14]: 490000 M⁻¹ s⁻¹
EC50 [6]: 9 nM
Fitted Maximal MFI [6]: 36500 MFI

B4: 108VH5.M23 / 108VL1.M5 (antibody, human IgG4 S228P, kappa, V domains shown)
VH: B1 VH with Y33W, S56K, L60Y, S61A, K65Q, D66G
VL: B1 VL
notes: Full-length IgG4 (S228P), kappa; also called VH5.M23 VL1.M5
CCRF-CEM phagocytosis EC50 [10]: 0.33 nM
CCRF-CEM phagocytosis, Phagocytosis (%) [10]: 64%
EC50 [11]: 2.7 nM
EC50 [12]: 3.2 nM
EC50 [5]: 5.8 nM
Fitted Maximal MFI [5]: 38800 MFI
Kd [13]: 33 nM
koff [13]: 0.0058 s⁻¹
kon [13]: 170000 M⁻¹ s⁻¹
Kd [14]: 6.4 nM
koff [14]: 0.0028 s⁻¹
kon [14]: 440000 M⁻¹ s⁻¹
EC50 [6]: 8.1 nM
Fitted Maximal MFI [6]: 42100 MFI

B5: 108VH5.M15 / 108VL1.M5 (antibody, human IgG4 S228P, kappa, V domains shown)
VH: B1 VH with Y33W, M34I, E57S, L60Y, S61A, K65Q, D66G
VL: B1 VL
notes: Full-length IgG4 (S228P), kappa; also called VH5.M15 VL1.M5
kon [7]: 160000 M⁻¹ s⁻¹
Kd [8]: 22 nM
koff [8]: 0.0048 s⁻¹
kon [8]: 220000 M⁻¹ s⁻¹
Kd [9]: > 630 nM
koff [9]: > 0.1 s⁻¹
EC50 [5]: 155 nM
Fitted Maximal MFI [5]: 926 MFI
EC50 [6]: 396 nM
Fitted Maximal MFI [6]: 3680 MFI

B8: 108VH10.Mc / 108VL10.M1 (antibody, V domains shown)
VH: EVQLVESGGGLVQPGGSLRLSCAASGYSFTHHWISWVRQAPGKGLEWVAMIDPSDSETRLSQKFKDRFTISADTSKNTAYLQMNSLRAEDTAVYYCSRLGRYYFDYWGQGTLVTVSS
VL: DIQMTQSPSSLSASVGDRVTITCRASENVGTYISWYQQKPGKAPKLLIYGASNRYTGVPSRFSGSRSGTDFTLTISSLQPEDFATYYCGESYGHLYTFGQGTKVEIK
notes: 4D5-framework series; constant regions not restated for this series; also called VH10.Mc VL10.M1
kon [17]: 61000 M⁻¹ s⁻¹
Kd [18]: 21 nM
koff [18]: 0.0054 s⁻¹
kon [18]: 250000 M⁻¹ s⁻¹
Kd [19]: > 1600 nM
koff [19]: > 0.1 s⁻¹

B9: 108VH10 / 108VL10.Mb (antibody, V domains shown)
VH: B8 VH with S35H
VL: B8 VL with G50A
notes: 4D5-framework series; constant regions not restated for this series; also called VH10 VL10.Mb
Kd [17]: 330 nM
koff [17]: 0.016 s⁻¹
kon [17]: 47000 M⁻¹ s⁻¹
Kd [18]: 38 nM
koff [18]: 0.011 s⁻¹
kon [18]: 290000 M⁻¹ s⁻¹
fold reduction of mono-valent binding affinity against the straight-graft antibody [20]: 7.7 fold

Further lines, results first:

EC50 [12]: 0.6 nM
B6: Hu5F9 (antibody, V domains shown)
VH: QVQLVQSGAEVKKPGASVKVSCKASGYTFTNYNMHWVRQAPGQRLEWMGTIYPGNDDTSYNQKFKDRVTITADTSASTAYMELSSLRSEDTAVYYCARGGYRAMDYWGQGTLVTVSS
VL: DIVMTQSPLSLPVTPGEPASISCRSSQSIVYSNGNTYLGWYLQKPGQSPQLLIYKVSNRFSGVPDRFSGSGSGTDFTLKISRVEAEDVGVYYCFQGSHVPYTFGQGTKLEIK

CCRF-CEM phagocytosis EC50 [10]: 0.29 nM
CCRF-CEM phagocytosis, Phagocytosis (%) [10]: 57.6%
EC50 [3]: 5.4 nM
EC50 [4]: 6.4 nM
EC50 [5]: 3.9 nM
Fitted Maximal MFI [5]: 21700 MFI
Kd [15]: 87 nM
koff [15]: 0.019 s⁻¹
kon [15]: 210000 M⁻¹ s⁻¹
Kd [16]: 9 nM
koff [16]: 0.0086 s⁻¹
kon [16]: 950000 M⁻¹ s⁻¹
EC50 [6]: 5.3 nM
Fitted Maximal MFI [6]: 30000 MFI
B7: 108VH10.Mk / 108VL10.Me (antibody, V domains shown)
VH: B8 VH with Y27F, S28T, T30S, S35H, P53A, F64V
VL: B8 VL with E27Q, N28S, V29I, G30S, T31S, I33L, S34N, N53S, T56S
notes: 4D5-framework series; also called VH10.Mk VL10.Me

Kd [17]: 290 nM
koff [17]: 0.014 s⁻¹
kon [17]: 49000 M⁻¹ s⁻¹
Kd [18]: 30 nM
koff [18]: 0.0071 s⁻¹
kon [18]: 230000 M⁻¹ s⁻¹
fold reduction of mono-valent binding affinity compared to 108VH10 [20]: 6.7 fold
B10: 108VH10.Mf / 108VL10.M1 (antibody, V domains shown)
VH: B8 VH with S35H, S61V, Q62D, K63S, F64V, D66G
VL: B8 VL
notes: 4D5-framework series; constant regions not restated for this series; also called VH10.Mf VL10.M1

CCRF-CEM phagocytosis EC50 (nM); plateau not reached [10]: 2.3 nM
EC50 [3]: 6.4 nM
EC50 [4]: 8.4 nM
EC50 [5]: 3.9 nM
Fitted Maximal MFI [5]: 19400 MFI
Kd [21]: 120 nM
koff [21]: 0.024 s⁻¹
kon [21]: 190000 M⁻¹ s⁻¹
Kd [22]: 7.5 nM
koff [22]: 0.0045 s⁻¹
kon [22]: 600000 M⁻¹ s⁻¹
EC50 [6]: 8 nM
Fitted Maximal MFI [6]: 27400 MFI
B11: 108VH10.Mq / 108VL10.Me (antibody, V domains shown)
VH: B8 VH with Y27F, S28T, T30S, S35H, P53A, Q62D, K63S, F64V, D66G
VL: B8 VL with E27Q, N28S, V29I, G30S, T31S, I33L, S34N, N53S, T56S
notes: 4D5-framework series; constant regions not restated for this series; also called VH10.Mq VL10.Me

CCRF-CEM phagocytosis EC50 [10]: 0.43 nM
CCRF-CEM phagocytosis, Phagocytosis (%) [10]: 49.8%
EC50 [3]: 15.7 nM
EC50 [4]: 49.9 nM
EC50 [5]: 8.1 nM
Fitted Maximal MFI [5]: 15700 MFI
Kd [21]: 160 nM
koff [21]: 0.025 s⁻¹
kon [21]: 150000 M⁻¹ s⁻¹
Kd [22]: 8.8 nM
koff [22]: 0.0031 s⁻¹
kon [22]: 360000 M⁻¹ s⁻¹
EC50 [6]: 14.4 nM
Fitted Maximal MFI [6]: 25400 MFI
B12: 108VH10.Mr / 108VL10.Me (antibody, V domains shown)
VH: B8 VH with Y27F, S28T, T30S, S35H, P53A, S61V, Q62D, K63S, F64V, D66G
VL: B8 VL with E27Q, N28S, V29I, G30S, T31S, I33L, S34N, N53S, T56S
notes: 4D5-framework series; constant regions not restated for this series; also called VH10.Mr VL10.Me
